T1: PARD3B_1, Q8TEW8
T1 sequence (Q8TEW8 196-299, limits assumed, looked up): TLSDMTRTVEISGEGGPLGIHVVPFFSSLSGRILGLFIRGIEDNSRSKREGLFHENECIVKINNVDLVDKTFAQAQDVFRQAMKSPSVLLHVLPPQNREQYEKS

T2: NHERF3_1, Q5T2W1
T2 sequence (Q5T2W1 4-100, limits assumed, looked up): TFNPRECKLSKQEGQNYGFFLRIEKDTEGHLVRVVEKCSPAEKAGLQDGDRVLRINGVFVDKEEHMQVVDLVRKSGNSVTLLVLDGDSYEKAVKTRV

T3: APBA1_2, Q02410
T3 sequence (Q02410 742-832, limits assumed, looked up): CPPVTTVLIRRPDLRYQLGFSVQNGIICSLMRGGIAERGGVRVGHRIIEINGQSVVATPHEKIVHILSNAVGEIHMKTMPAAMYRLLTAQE

T4: SNTG1, Q9NSN8
T4 sequence (Q9NSN8 52-150, limits assumed, looked up): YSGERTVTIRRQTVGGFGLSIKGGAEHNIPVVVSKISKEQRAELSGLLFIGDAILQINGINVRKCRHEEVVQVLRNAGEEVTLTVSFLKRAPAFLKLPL

T5: LRRC7, Q96NW7
T5 sequence (Q96NW7 1440-1537, limits assumed, looked up): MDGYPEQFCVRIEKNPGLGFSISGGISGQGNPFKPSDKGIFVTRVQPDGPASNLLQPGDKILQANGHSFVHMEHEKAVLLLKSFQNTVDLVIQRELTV

T6: CARD11, Q9BXL7
T6 sequence (Q9BXL7 662-765, limits assumed, looked up): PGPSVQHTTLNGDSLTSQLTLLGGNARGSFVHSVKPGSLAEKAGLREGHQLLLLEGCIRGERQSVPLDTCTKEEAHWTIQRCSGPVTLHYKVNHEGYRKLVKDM

T7: SNTG2, Q9NY99
T7 sequence (Q9NY99 68-166, limits assumed, looked up): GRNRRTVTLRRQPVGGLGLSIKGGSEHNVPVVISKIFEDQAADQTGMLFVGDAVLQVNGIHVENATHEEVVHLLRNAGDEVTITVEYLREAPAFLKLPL

T8: MPP6, Q9NZW5
T8 sequence (Q9NZW5 125-219, limits assumed, looked up): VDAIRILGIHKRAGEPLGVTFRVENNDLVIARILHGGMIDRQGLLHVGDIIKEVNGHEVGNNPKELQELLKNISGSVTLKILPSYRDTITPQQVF

T9: NHERF3_3, Q5T2W1
T9 sequence (Q5T2W1 238-333, limits assumed, looked up): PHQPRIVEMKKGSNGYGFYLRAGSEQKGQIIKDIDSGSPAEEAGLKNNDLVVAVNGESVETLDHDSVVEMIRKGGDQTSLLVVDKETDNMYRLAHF

B1: SLC26A3, P40879 (peptide)
chain: VYEVPVETKF
B2: CLDN10, P78369 (peptide)
chain: SKQFDKNAYV

Biological target: T1, PARD3B_1, Q8TEW8
Test: holdup assay
Set-up: key: below the threshold = too weak to quantify, mostly under pKd 3.1 to 4
Conditions: plain residues with an end cap or a label only (N-terminal biotin on a linker: ado-ado)

Row | pKd | Binder
1 | 4.19 | B1
2 | 3.97 | B2

Biological target: T2, NHERF3_1, Q5T2W1
Test: holdup assay
Set-up: key: below the threshold = too weak to quantify, mostly under pKd 3.1 to 4
Conditions: plain residues with an end cap or a label only (N-terminal biotin on a linker: ado-ado)

Row | pKd | Binder
3 | 5.51 | B1
4 | 4.85 | B2

Biological target: T3, APBA1_2, Q02410
Test: holdup assay
Set-up: key: below the threshold = too weak to quantify, mostly under pKd 3.1 to 4
Conditions: plain residues with an end cap or a label only (N-terminal biotin on a linker: ado-ado)

Row | pKd | Binder
5 | 3.58 | B1
6 | 3.73 | B2

Biological target: PICK1, Q9NRD5
Test: holdup assay
Set-up: key: below the threshold = too weak to quantify, mostly under pKd 3.1 to 4
Conditions: plain residues with an end cap or a label only (N-terminal biotin on a linker: ado-ado)

Sequence of PICK1, Q9NRD5 (Q9NRD5 17-115): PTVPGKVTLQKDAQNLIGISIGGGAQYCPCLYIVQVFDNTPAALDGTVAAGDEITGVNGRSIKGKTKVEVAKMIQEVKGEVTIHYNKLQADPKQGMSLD

Row | pKd | Binder
7 | 4.19 | B1
8 | below the threshold | B2

Biological target: T4, SNTG1, Q9NSN8
Test: holdup assay
Set-up: key: below the threshold = too weak to quantify, mostly under pKd 3.1 to 4
Conditions: plain residues with an end cap or a label only (N-terminal biotin on a linker: ado-ado)

Row | pKd | Binder
9 | below the threshold | B1
10 | below the threshold | B2

Biological target: PTPN3, P26045
Test: holdup assay
Set-up: key: below the threshold = too weak to quantify, mostly under pKd 3.1 to 4
Conditions: plain residues with an end cap or a label only (N-terminal biotin on a linker: ado-ado)

Sequence of PTPN3, P26045 (P26045 505-587): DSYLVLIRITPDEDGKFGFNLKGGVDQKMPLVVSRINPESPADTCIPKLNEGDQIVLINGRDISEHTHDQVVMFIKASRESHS

Row | pKd | Binder
11 | 4.84 | B1
12 | below the threshold | B2

Biological target: Inadl_3, Q8NI35
Test: holdup assay
Set-up: key: below the threshold = too weak to quantify, mostly under pKd 3.1 to 4
Conditions: plain residues with an end cap or a label only (N-terminal biotin on a linker: ado-ado)

Sequence of Inadl_3, Q8NI35 (Q8NI35 359-469): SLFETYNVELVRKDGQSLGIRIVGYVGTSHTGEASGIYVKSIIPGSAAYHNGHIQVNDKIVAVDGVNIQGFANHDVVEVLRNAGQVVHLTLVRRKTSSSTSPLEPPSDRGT

Row | pKd | Binder
13 | below the threshold | B1
14 | below the threshold | B2

Biological target: DLG2_2, Q15700
Test: holdup assay
Set-up: key: below the threshold = too weak to quantify, mostly under pKd 3.1 to 4
Conditions: plain residues with an end cap or a label only (N-terminal biotin on a linker: ado-ado)

Sequence of DLG2_2, Q15700 (Q15700 189-283): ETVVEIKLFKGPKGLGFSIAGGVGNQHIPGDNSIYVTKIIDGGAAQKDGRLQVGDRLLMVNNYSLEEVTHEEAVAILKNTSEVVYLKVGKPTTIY

Row | pKd | Binder
15 | below the threshold | B1
16 | below the threshold | B2

Biological target: DLG5_1, Q8TDM6
Test: holdup assay
Set-up: key: below the threshold = too weak to quantify, mostly under pKd 3.1 to 4
Conditions: plain residues with an end cap or a label only (N-terminal biotin on a linker: ado-ado)

Sequence of DLG5_1, Q8TDM6 (Q8TDM6 617-713): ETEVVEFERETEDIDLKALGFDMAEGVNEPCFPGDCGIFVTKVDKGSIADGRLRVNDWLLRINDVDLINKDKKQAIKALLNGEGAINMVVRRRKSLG

Row | pKd | Binder
17 | below the threshold | B1
18 | below the threshold | B2

Biological target: NHERF4_4, Q86UT5
Test: holdup assay
Set-up: key: below the threshold = too weak to quantify, mostly under pKd 3.1 to 4
Conditions: plain residues with an end cap or a label only (N-terminal biotin on a linker: ado-ado)

Sequence of NHERF4_4, Q86UT5 (Q86UT5 464-550): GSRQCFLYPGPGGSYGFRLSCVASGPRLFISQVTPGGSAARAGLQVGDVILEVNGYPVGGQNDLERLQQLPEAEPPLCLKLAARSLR

Row | pKd | Binder
19 | below the threshold | B1
20 | below the threshold | B2

Biological target: SCRIB_3, Q14160
Test: holdup assay
Set-up: key: below the threshold = too weak to quantify, mostly under pKd 3.1 to 4
Conditions: plain residues with an end cap or a label only (N-terminal biotin on a linker: ado-ado)

Sequence of SCRIB_3, Q14160 (Q14160 999-1103): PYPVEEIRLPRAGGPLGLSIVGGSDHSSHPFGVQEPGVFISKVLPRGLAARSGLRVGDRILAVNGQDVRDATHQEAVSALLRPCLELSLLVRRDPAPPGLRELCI

Row | pKd | Binder
21 | 4.44 | B1
22 | below the threshold | B2

Biological target: DLG1_3, Q12959
Test: holdup assay
Set-up: key: below the threshold = too weak to quantify, mostly under pKd 3.1 to 4
Conditions: plain residues with an end cap or a label only (N-terminal biotin on a linker: ado-ado)

Sequence of DLG1_3, Q12959 (Q12959 457-571): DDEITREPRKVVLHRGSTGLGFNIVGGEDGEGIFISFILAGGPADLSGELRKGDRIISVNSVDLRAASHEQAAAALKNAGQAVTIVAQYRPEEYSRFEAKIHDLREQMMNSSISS

Row | pKd | Binder
23 | 3.6 | B1
24 | below the threshold | B2

Biological target: TJP1_3, Q07157
Test: holdup assay
Set-up: key: below the threshold = too weak to quantify, mostly under pKd 3.1 to 4
Conditions: plain residues with an end cap or a label only (N-terminal biotin on a linker: ado-ado)

Sequence of TJP1_3, Q07157 (Q07157 416-512): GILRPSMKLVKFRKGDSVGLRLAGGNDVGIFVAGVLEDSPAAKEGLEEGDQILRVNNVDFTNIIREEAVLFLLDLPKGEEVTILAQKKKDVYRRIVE

Row | pKd | Binder
25 | below the threshold | B1
26 | below the threshold | B2

Biological target: IL16_1, Q14005
Test: holdup assay
Set-up: key: below the threshold = too weak to quantify, mostly under pKd 3.1 to 4
Conditions: plain residues with an end cap or a label only (N-terminal biotin on a linker: ado-ado)

Sequence of IL16_1, Q14005 (Q14005 210-306): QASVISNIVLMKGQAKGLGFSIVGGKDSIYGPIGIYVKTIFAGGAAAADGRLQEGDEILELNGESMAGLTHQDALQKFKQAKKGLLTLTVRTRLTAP

Row | pKd | Binder
27 | below the threshold | B1
28 | below the threshold | B2

Biological target: LNX1_1, Q8TBB1
Test: holdup assay
Set-up: key: below the threshold = too weak to quantify, mostly under pKd 3.1 to 4
Conditions: plain residues with an end cap or a label only (N-terminal biotin on a linker: ado-ado)

Sequence of LNX1_1, Q8TBB1 (Q8TBB1 261-371): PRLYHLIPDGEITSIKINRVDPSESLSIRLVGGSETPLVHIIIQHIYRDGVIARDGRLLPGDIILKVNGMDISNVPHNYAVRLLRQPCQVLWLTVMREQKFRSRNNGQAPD

Row | pKd | Binder
29 | 3.85 | B1
30 | below the threshold | B2

Biological target: GRIP2_6, Q9C0E4
Test: holdup assay
Set-up: key: below the threshold = too weak to quantify, mostly under pKd 3.1 to 4
Conditions: plain residues with an end cap or a label only (N-terminal biotin on a linker: ado-ado)

Sequence of GRIP2_6, Q9C0E4 (Q9C0E4 648-740): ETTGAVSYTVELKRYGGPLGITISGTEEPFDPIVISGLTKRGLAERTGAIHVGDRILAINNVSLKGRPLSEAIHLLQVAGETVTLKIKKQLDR

Row | pKd | Binder
31 | below the threshold | B1
32 | below the threshold | B2

Biological target: T5, LRRC7, Q96NW7
Test: holdup assay
Set-up: key: below the threshold = too weak to quantify, mostly under pKd 3.1 to 4
Conditions: plain residues with an end cap or a label only (N-terminal biotin on a linker: ado-ado)

Row | pKd | Binder
33 | below the threshold | B1
34 | below the threshold | B2

Biological target: T6, CARD11, Q9BXL7
Test: holdup assay
Set-up: key: below the threshold = too weak to quantify, mostly under pKd 3.1 to 4
Conditions: plain residues with an end cap or a label only (N-terminal biotin on a linker: ado-ado)

Row | pKd | Binder
35 | below the threshold | B1
36 | below the threshold | B2

Biological target: LDB3, O75112
Test: holdup assay
Set-up: key: below the threshold = too weak to quantify, mostly under pKd 3.1 to 4
Conditions: plain residues with an end cap or a label only (N-terminal biotin on a linker: ado-ado)

Sequence of LDB3, O75112 (O75112 1-94): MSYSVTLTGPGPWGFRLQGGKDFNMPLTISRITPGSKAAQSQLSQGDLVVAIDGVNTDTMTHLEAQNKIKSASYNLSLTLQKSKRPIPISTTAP

Row | pKd | Binder
37 | 3.55 | B1
38 | below the threshold | B2

Biological target: T7, SNTG2, Q9NY99
Test: holdup assay
Set-up: key: below the threshold = too weak to quantify, mostly under pKd 3.1 to 4
Conditions: plain residues with an end cap or a label only (N-terminal biotin on a linker: ado-ado)

Row | pKd | Binder
39 | below the threshold | B1
40 | below the threshold | B2

Biological target: T8, MPP6, Q9NZW5
Test: holdup assay
Set-up: key: below the threshold = too weak to quantify, mostly under pKd 3.1 to 4
Conditions: plain residues with an end cap or a label only (N-terminal biotin on a linker: ado-ado)

Row | pKd | Binder
41 | below the threshold | B1
42 | below the threshold | B2

Biological target: IL16_4, Q14005
Test: holdup assay
Set-up: key: below the threshold = too weak to quantify, mostly under pKd 3.1 to 4
Conditions: plain residues with an end cap or a label only (N-terminal biotin on a linker: ado-ado)

Sequence of IL16_4, Q14005 (Q14005 1229-1329): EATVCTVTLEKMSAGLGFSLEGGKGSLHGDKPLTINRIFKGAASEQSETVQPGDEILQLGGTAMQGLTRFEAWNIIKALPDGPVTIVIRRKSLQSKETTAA

Row | pKd | Binder
43 | below the threshold | B1
44 | below the threshold | B2

Biological target: SCRIB_1, Q14160
Test: holdup assay
Set-up: key: below the threshold = too weak to quantify, mostly under pKd 3.1 to 4
Conditions: plain residues with an end cap or a label only (N-terminal biotin on a linker: ado-ado)

Sequence of SCRIB_1, Q14160 (Q14160 718-814): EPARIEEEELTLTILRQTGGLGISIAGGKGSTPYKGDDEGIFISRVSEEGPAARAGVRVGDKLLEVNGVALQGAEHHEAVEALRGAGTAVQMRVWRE

Row | pKd | Binder
45 | 4.18 | B1
46 | below the threshold | B2

Biological target: T9, NHERF3_3, Q5T2W1
Test: holdup assay
Set-up: key: below the threshold = too weak to quantify, mostly under pKd 3.1 to 4
Conditions: plain residues with an end cap or a label only (N-terminal biotin on a linker: ado-ado)

Row | pKd | Binder
47 | 4.16 | B1
48 | below the threshold | B2

Biological target: LIMK2, P53671
Test: holdup assay
Set-up: key: below the threshold = too weak to quantify, mostly under pKd 3.1 to 4
Conditions: plain residues with an end cap or a label only (N-terminal biotin on a linker: ado-ado)

Sequence of LIMK2, P53671 (P53671 143-248): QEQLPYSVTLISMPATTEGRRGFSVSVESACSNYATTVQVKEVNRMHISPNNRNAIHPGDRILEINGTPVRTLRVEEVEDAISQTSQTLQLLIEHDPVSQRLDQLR

Row | pKd | Binder
49 | below the threshold | B1
50 | below the threshold | B2

Biological target: GRASP, Q7Z6J2
Test: holdup assay
Set-up: key: below the threshold = too weak to quantify, mostly under pKd 3.1 to 4
Conditions: plain residues with an end cap or a label only (N-terminal biotin on a linker: ado-ado)

Sequence of GRASP, Q7Z6J2 (Q7Z6J2 96-193): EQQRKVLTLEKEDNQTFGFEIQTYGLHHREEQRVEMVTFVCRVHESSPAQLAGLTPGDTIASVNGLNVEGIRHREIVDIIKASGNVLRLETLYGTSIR

Row | pKd | Binder
51 | 3.81 | B1
52 | 3.56 | B2

Biological target: AHNAK1, Q09666
Test: holdup assay
Set-up: key: below the threshold = too weak to quantify, mostly under pKd 3.1 to 4
Conditions: plain residues with an end cap or a label only (N-terminal biotin on a linker: ado-ado)

Sequence of AHNAK1, Q09666 (Q09666 4-100): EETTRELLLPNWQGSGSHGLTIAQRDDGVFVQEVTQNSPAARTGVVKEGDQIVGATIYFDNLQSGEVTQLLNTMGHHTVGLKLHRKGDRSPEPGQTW

Row | pKd | Binder
53 | below the threshold | B1
54 | below the threshold | B2

Biological target: MAGI2_3, Q86UL8
Test: holdup assay
Set-up: key: below the threshold = too weak to quantify, mostly under pKd 3.1 to 4
Conditions: plain residues with an end cap or a label only (N-terminal biotin on a linker: ado-ado)

Sequence of MAGI2_3, Q86UL8 (Q86UL8 600-682): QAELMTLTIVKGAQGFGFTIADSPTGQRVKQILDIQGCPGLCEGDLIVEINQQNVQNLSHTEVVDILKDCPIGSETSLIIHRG

Row | pKd | Binder
55 | below the threshold | B1
56 | below the threshold | B2
